In US12636342B2, “TARS derived from Akkermansia muciniphila or fragment thereof, and use thereof” (KOREA RESEARCH INSTITUTE OF BIOSCIENCE AND BIOTECHNOLOGY, priority 2020, dated 2026):

What was measured:
BMDMs [1] = assay: Global gene expression profiling (RNA sequencing) of BMDMs; format: cell-based, mouse
Method: (A-E) Global gene expression analysis. Total mRNA from BMDMs treated with either AmTARS (0.5 μM) or Pam3 (10 ng ml-1) for 1 or 3 h was isolated and analyzed by RNA sequencing (A). Principle components analysis (PCA) of the gene expression profiles for each sample (B). Hierarchical clustering of gene expression profiles from each sample identified cluster 3 and 4 (C). Gene set enrichment analysis (GSEA) of clusters 3 and 4 with respect to terms related to inflammation (D). […] (F) Overview of the experimental procedures for zebrafish. The yolk of Tg (NFκB:EGFP) transgenic zebrafish larvae (3 dpf) was injected with PBS or AmTARS. Injected larvae were treated at 3 and 5 dpf with 0.5% DSS for 24 h, with a washing period with fresh water for 24 h in between. Sample collection and analysis of Tg (NFκB:EGFP)-based EGFP intensity were conducted at 6 dpf. (G) Representative confocal images showing NF-κB signaling in the mid-distal intestines of PBS- or AmTARS-injected larvae with or without DSS treatment. White dashed lines denote the boundaries of the intestines (based on merged DIC bright field images). (H) Bar graph comparing the fluorescence intensity of the mid-distal intestines of PBS- or AmTARS-injected larvae treated (or not) with DSS (n=32 per PBS group and n=35 per DSS group). (I) Schematic model of the role of AmTARS in maintaining immune homeostasis via TLR2-mediated anti-inflammatory signaling pathways. Data shown in (A-C) are representative and repeated twice. Data shown in (H) are representative of three independent experiments, each similar results (mean±SEM). P-values were calculated by unpaired and two-tailed Student's t-test.
We next performed global gene expression profiling of BMDMs treated with AmTARS or Pam3 for 1 or 3 h (FIG. 32A). […] Subsets of genes showing different expression patterns between AmTARS and Pam3 were classified into six clusters by hierarchical clustering analysis (FIGS. 33A and 33B). The gene expression pattern at 3 h was particularly different for clusters 3 and 4 (FIGS. 32C, 33A, and 33B). […]

BMDMs [2] = assay: Immunoblotting of AmTARS/TLR2-induced signaling molecules in BMDMs; format: cell-based, mouse; details: BMDMs stimulated for 30 min, 0.5 μM
Method: (A and B) Analysis of key molecules that inhibit the MAPK and PI3K/AKT signaling pathways. IL-10 produced by BMDMs pre-treated with inhibitors of ERK (PD98059, […]), p38 (SB203580, […]), MSK1/2 (SB747651A, 10 μM), CREB (666-15, 1 μM), PI3K (Wortmannin, 10 μM), and AKT1/2 (AKT1/2, 10 μM) for 1 h before treatment with either PBS or AmTARS for 24 h (n=6 per group) (A). Flow cytometry analysis of M2 macrophages in BMDMs pre-treated for 1 h with the indicated kinase inhibitors, before treatment with either PBS or AmTARS for 24 h (n=3 per group) (B). (C and D) Western blot analysis of MAPK signaling molecules in lysates of BMDMs (C) or THP1 cells (D) treated for different times with 0.5 μM AmTARS. (E) Western blot analysis of lysates of BMDMs pre-treated with α-IgG (Isotype, 1 μg ml-1) or α-TLR2 (1 μg ml-1) for 1 h before treatment with PBS, AmTARS (0.5 μM), or Pam3 (0.5 μM) for 30 min. (F and G) Western blot analysis of PI3K/AKT signaling molecules in lysates of BMDMs (F) or THP1 cells (G) treated with 0.5 μM AmTARS. (H) AmTARS activates both TLR2/1- and TLR2/6-mediated signaling. Activation of AKT, ERK, and CREB was measured by western blot analysis of lysates of THP1 cells pre-treated with α-IgG, α-TLR1, α-TLR2, or α-TLR6 (1 μg ml-1) for 1 h before treatment for 30 min with PBS or AmTARS (0.5 µM). Data shown in (A and B) are representative of three independent experiments, each with similar results (mean±SEM). P-values were calculated using an unpaired two-tailed Student's t-test. Data shown in (C-H) are representative and repeated at least three times.
Subsequently, we conducted immunoblotting assays to measure the time-dependent activation of AmTARS/TLR2-induced signaling molecules in both BMDMs and THP1 cells. AmTARS rapidly activated ERK, p38, and MSK1/2 within 15 min and, subsequently, phosphorylation of CREB at Ser133 (which is essential for IL-10 production) within 30 min in BMDMs (FIG. 31C) and THP1 cells (FIG. 31D). We then compared AmTARS-triggered TLR2 signaling with typical ligand-triggered signaling using Pam3CSK4 (the synthetic canonical TLR2/1 agonist, referred to hereafter as Pam3) in BMDMs stimulated for 30 min. […] By contrast, activation of NF-κB was greater in Pam3-treated BMDMs than in AmTARS-treated BMDMs (FIG. 31E).

[3] = target: T1, mouse TLR2 on bone marrow-derived macrophages (BMDMs), Q9QUN7
T1 chain: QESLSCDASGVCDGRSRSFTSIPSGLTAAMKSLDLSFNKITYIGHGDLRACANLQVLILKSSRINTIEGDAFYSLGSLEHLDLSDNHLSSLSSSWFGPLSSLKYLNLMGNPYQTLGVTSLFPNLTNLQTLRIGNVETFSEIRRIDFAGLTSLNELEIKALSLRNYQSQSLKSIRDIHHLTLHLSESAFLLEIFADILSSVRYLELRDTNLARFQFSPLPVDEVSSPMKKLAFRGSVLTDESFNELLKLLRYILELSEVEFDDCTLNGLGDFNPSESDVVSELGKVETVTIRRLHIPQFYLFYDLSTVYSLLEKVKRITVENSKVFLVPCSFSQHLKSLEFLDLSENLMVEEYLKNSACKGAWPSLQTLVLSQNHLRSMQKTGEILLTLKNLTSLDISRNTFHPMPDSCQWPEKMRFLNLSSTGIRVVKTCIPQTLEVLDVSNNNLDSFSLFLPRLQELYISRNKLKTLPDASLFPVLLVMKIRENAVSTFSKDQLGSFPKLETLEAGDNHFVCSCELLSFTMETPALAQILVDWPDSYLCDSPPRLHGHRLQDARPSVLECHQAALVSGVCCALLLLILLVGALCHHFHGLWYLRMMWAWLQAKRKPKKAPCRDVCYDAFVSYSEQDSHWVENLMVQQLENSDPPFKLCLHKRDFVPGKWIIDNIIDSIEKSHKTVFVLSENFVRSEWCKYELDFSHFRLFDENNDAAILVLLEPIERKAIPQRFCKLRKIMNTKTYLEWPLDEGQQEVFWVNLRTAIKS

TLR4-FLAG = target: T2, TLR4-FLAG (UniProt O00206 24-839, limits assumed); assay: Strep pull-down from HEK 293T cells co-expressing Strep-AmTARS and TLR4-FLAG, immunoblot
T2 construct: not shown: FLAG tag
T2 sequence (O00206 24-839 limits assumed): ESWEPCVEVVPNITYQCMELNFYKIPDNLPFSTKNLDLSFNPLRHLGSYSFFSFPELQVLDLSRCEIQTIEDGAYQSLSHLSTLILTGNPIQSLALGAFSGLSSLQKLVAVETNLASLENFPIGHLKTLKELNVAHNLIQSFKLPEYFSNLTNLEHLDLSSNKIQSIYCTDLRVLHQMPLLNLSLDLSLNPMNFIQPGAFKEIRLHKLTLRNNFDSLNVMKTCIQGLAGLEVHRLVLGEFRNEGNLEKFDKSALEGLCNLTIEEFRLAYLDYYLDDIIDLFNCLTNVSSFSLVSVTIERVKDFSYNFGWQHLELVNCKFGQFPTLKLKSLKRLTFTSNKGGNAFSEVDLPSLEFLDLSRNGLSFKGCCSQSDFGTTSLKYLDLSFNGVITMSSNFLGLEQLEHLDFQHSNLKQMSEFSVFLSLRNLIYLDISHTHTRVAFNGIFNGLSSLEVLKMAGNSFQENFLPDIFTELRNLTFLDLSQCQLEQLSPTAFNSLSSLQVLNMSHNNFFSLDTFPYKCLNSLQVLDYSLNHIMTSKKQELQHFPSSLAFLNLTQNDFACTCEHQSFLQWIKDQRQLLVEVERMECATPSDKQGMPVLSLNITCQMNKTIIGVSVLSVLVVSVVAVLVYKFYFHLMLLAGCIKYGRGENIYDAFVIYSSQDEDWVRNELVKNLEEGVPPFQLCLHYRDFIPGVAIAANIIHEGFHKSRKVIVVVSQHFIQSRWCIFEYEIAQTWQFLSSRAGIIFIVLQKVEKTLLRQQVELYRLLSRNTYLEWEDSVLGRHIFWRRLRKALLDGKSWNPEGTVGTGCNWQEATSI

[4] = test system: mouse bone marrow-derived macrophages (BMDMs); assay: ELISA of immune cytokine secretion in BMDMs under normal conditions; format: cell-based; details: normal (non-inflammatory) conditions, 24 h
Method: Specifically, mouse bone marrow-derived macrophages (BMDMs) as mouse-derived immune cells were extracted from the mouse thighbone and shinbone, and then cultured in DMEM containing 10% fetal bovine serum (FBS) and antibiotics. Human macrophages (THP1) as human-derived immune cells were cultured in RPMI media containing 10% FBS and antibiotics.
The cultured cells were treated with AmTARS at 0.1 μM, 0.2 μM, and 0.5 μM for 24 h to obtain cell cultures. For cell removal, the media were centrifuged at 500×g for 10 min to obtain supernatants, which were then analyzed using an ELISA set (mouse interleukin (IL)-6, mouse IL-10, mouse tumor necrosis factor (TNF)-α, human IL-6, human IL-10, human TNF-α; BD Biosciences) to investigate the secretion of mouse- and human-derived immune cytokines. […]

BMDMs from TLR2-KO mouse = assay: IL-10 production in BMDMs from TLR2 knock-out mice; format: cell-based
Description: The TLR2-dependent immune function of AmTARS was further corroborated using TLR2 knock-out (KO) mice. […] However, IL-10 production by […] (U1/U2) was abolished in BMDMs from TLR2-KO mice, providing further evidence that AmTARS regulates host immune cells via its unique regions in a TLR2-dependent manner (FIG. 28D).

Molecule: Pam3CSK4
- transcription factors associated with up-regulated genes (BMDMs [1]; GSEA (Enrichr)): up-regulation of inflammation-related transcription factors such as NF-κB, RELA, and TFAP2A
- gene set enrichment analysis, inflammatory response-related genes (BMDMs [1]; Pam3 compared with AmTARS): significant induction of inflammatory response-related genes
- activation of NF-κB, Pam3 versus AmTARS (BMDMs [2]): greater

B1: Strep-tagged Akkermansia muciniphila threonyl-tRNA synthetase (Strep-AmTARS) (enzyme)
chain: MSEHKERKTLEERQQMSDLERLRHSCAHVLATAICRLWPDAQLAGGPAVDNGFYYDVELDHRISTEDFERIEEEMKKVVKENQVFQKEVISRADAMKMAESGELGALGPRSEPSRFKIDLLNDIPEDEEISLYRNGDFTDLCAGPHVGRTGNCKAFKIMSVASAFYKGDKNRPMLQRIYGTCFPNRTQLDEHLERLEEARRRDHRKLGRELGLFCIDESVGQGLILWKPKGALIRRSLQDFITEELDKLGYSQVYTPNIGKLDLYRTSGHFPYYQESQYAPIPERDAMEKLSQEGASCAELFNGLATGTIEGYMLKPMNCPHHIKIYANDAHSYRDLPVRLAEFGTVYRWEQSGELGGMTRVRGFTQDDAHIFCTPDQLAGEIRQCLGIVKTIFGTLGMTDYRVRLSMRDPESDKYVGSPENWDKAEQALREAAEWLGADYSEEAGEAAFYGPKIDFIVRDAIGREWQLGTVQVDYNLPERFDLHYTGADNKPHRPVMVHRAPFGSMERFTGLLIEHFEGKFPTWLSPEQVRVLPISDKVTDVAAAHRTALAARGVRVTVDETPDKIGAKIRNARLDRVPYMLVLGQREAEDGTVSVRHRDKGDLGAMPFEQFADLVAREIAERHISPVI
notes: The tag is put N-terminal from the name 'Strep-AmTARS'; not shown: 2 x Strep tag from vector pEXPR-IBA105
- activation of PI3K and AKT, and phosphorylation of GSK3β at Ser9 (western blot) in BMDMs [3]: AmTARS activated PI3K and AKT, and subsequently inhibited GSK3β activity via AKT-mediated phosphorylation at Ser9, in BMDMs
- binding result (TLR4-FLAG): no binding

B2: EcTARS (U1/U2): Engineered EcTARS incorporating the AmTARS U1 and U2 regions, SEQ ID NO: 18 (protein)
chain: MPVITLPDGSQRHYDHAVSPMDVALDIGPGLAKACIAGRVNGELVDACDLIENDAQLSIITAKDEEGLEIIRHSCAHLLGHAIKQLWPHTKMAIGPVIDNGFYYDVDLDRTLTQEDVEALEKRMHELAEKNYDVIKKKVSWHEARETFANRGAESGELGALGPRSEPESYKVSILDENIAHDDKPGLYFHEEYVDMCRGPHVPNMRFCHHFKLMKTAGAYWRGDSNNKMLQRIYGTAWADKKALNAYLQRLEEAAKRDHRKIGKQLDLYHMQEEAPGMVFWHNDGWTIFRELEVFVRSKLKEYQYQEVKGPFMMDRVLWEKTGHWDNYKDAMFTTSSEKLSQEGASCAELFNGLATGTIEGNREYCIKPMNCPGHVQIFNQGLKSYRDLPLRMAEFGSCHRNEPSGSLHGLMRVRGFTQDDAHIFCTEEQIRDEVNGCIRLVYDMYSTFGFEKIVVKLSTRPEKRIGSDEMWDRAEADLAVALEENNIPFEYQLGEGAFYGPKIEFTLYDCLDRAWQCGTVQLDFSLPSRLSASYVGEDNERKVPVMIHRAILGSMERFIGILTEEFAGFFPTWLAPVQVVIMNITDSQSEYVNELTQKLSNAGIRVKADLRNEKIGFKIREHTLRRVPYMLVCGDKEVESGKVAVRTRRGKDLGSMDVNEVIEKLQQEIRSRSLKQLEE
modifications: EcTARS(U1/U2)
- secretion/production of IL-10 [4]: conferred the ability to trigger IL-10 production
- IL-10 production (BMDMs from TLR2-KO mouse): abolished
